The record followed here is patent US20020106690A1 (published 2002).

“And” between values parts separate entries of the source, which are not always exact repeats. Equal entries are not always repeated. Some results are limits rather than exact numbers.

One series addresses T1, Ste4p, P18851.
T1 chain: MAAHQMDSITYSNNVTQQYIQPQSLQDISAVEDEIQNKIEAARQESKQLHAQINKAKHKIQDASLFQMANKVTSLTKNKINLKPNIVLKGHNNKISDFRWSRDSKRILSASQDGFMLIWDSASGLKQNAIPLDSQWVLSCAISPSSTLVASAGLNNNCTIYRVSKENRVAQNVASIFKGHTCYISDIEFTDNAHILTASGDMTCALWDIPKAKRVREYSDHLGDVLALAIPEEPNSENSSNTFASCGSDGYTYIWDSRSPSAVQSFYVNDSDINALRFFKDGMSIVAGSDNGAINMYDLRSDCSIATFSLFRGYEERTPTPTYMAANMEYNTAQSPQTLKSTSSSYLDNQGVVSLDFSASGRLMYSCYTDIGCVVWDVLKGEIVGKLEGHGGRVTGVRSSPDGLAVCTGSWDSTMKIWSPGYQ

Series [1] deals with T2, HA-Ste4p (Saccharomyces cerevisiae (yeast), UniProt P18851 1-423).
T2 sequence (looked up): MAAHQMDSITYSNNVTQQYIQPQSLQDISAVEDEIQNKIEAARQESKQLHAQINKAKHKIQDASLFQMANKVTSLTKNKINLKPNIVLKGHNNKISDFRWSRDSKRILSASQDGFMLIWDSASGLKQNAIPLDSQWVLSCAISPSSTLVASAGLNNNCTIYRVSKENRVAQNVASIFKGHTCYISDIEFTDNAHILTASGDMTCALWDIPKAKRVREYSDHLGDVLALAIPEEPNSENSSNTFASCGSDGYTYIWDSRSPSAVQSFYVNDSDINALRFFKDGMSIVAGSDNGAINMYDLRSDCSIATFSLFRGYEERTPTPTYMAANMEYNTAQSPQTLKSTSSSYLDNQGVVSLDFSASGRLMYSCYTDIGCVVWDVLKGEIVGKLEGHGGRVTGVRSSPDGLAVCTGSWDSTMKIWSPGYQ
Put plainly: co-immunoprecipitation from yeast extracts, densitometry of Western blots, against untreated cells. How it is done:
(A) Time course of pheromone-induced Ste20p binding to HA-Ste4p. HA-Ste4p expressed from the STE4 promoter in cells deleted for STE4 was immunoprecipitated after treatment with […] a-factor. Relative amounts of Ste20p and HA-Ste4p were determined in Western blots (see example in upper and middle panels) and quantified densitometrically (mean values ±SD, n=3) (lower panel). (B) Association of Ste5p with HA-Ste4p expressed from the STE4 promoter in cells deleted for STE4 . HA-Ste4p immunoprecipitates from exponentially growing (−) and pheromone-treated (90 minutes) (+) yeast cells were analyzed with antibodies to Ste5p (upper panel) or HA-Ste4p (lower panel). (C) Overexpression of Ste4p leads to binding to Ste20p. HA-Ste4p was overexpressed from the GAL1 promoter in cells deleted for STE20 (lane 1) or STE4 (lanes 2 and 3). HA-Ste4p expression was suppressed in glucose-containing medium in cells deleted for STE4 (lane 4). Immunoprecipitates obtained with antibodies to Ste20p (lanes 1 and 2) or the HA-epitope (lanes 3 and 4) were analyzed for the presence of Ste20p (upper panel) and HA-Ste4p (lower panel). (D) Coimmunoprecipitation of HA-Ste4p and Ste20p truncation mutants. […] HA-Ste4p (lanes 1 and 2) and Ste20p (lanes 3 and 4) immunoprecipitates were analyzed for the presence of Ste20p (upper panel) and HA-Ste4p (lower panel) by Western blot analyses. […]
For orientation: In western blotting, separated proteins are transferred to a membrane and probed.

A further series deals with T3, GST-Ste20p FL (Saccharomyces cerevisiae (yeast), UniProt Q03497 1-939).
T3 construct: Purified on glutathione-Sepharose beads; also called GST fusion with full length Ste20p; not shown: glutathione S-transferase (GST), amino-terminal fusion partner
T3 sequence: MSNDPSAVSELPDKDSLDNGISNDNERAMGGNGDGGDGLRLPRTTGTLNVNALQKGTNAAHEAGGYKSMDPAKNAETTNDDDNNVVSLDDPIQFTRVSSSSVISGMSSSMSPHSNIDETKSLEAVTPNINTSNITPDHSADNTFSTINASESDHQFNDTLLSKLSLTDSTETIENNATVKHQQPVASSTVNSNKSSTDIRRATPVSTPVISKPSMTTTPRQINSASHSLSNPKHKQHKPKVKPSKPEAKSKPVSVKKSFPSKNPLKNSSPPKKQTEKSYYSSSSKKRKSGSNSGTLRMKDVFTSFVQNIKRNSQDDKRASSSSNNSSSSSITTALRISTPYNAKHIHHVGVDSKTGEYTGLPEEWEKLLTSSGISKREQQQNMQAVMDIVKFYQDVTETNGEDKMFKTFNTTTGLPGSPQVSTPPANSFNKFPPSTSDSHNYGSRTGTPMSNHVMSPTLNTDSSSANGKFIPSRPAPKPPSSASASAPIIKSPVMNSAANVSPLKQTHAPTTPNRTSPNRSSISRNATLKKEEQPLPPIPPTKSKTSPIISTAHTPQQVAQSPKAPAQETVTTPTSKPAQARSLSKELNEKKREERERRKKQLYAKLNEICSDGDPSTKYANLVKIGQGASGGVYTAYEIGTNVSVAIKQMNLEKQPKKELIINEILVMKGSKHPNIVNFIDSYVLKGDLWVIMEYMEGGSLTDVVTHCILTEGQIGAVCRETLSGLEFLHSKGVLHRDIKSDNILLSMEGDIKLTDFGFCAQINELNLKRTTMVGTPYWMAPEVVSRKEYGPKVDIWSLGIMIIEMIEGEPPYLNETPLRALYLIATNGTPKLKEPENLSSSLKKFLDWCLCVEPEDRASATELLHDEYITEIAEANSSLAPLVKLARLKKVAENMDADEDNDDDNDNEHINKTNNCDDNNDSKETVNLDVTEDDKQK
As to the kind of experiment: GST pull-down of in vitro-translated HA-Ste18p.

Series [2] has as its target T2, HA-Ste4p. Put plainly: co-immunoprecipitation from yeast extracts, Western blot.

B1: Ste20p (enzyme)
chain: MSNDPSAVSELPDKDSLDNGISNDNERAMGGNGDGGDGLRLPRTTGTLNVNALQKGTNAAHEAGGYKSMDPAKNAETTNDDDNNVVSLDDPIQFTRVSSSSVISGMSSSMSPHSNIDETKSLEAVTPNINTSNITPDHSADNTFSTINASESDHQFNDTLLSKLSLTDSTETIENNATVKHQQPVASSTVNSNKSSTDIRRATPVSTPVISKPSMTTTPRQINSASHSLSNPKHKQHKPKVKPSKPEAKSKPVSVKKSFPSKNPLKNSSPPKKQTEKSYYSSSSKKRKSGSNSGTLRMKDVFTSFVQNIKRNSQDDKRASSSSNNSSSSSITTALRISTPYNAKHIHHVGVDSKTGEYTGLPEEWEKLLTSSGISKREQQQNMQAVMDIVKFYQDVTETNGEDKMFKTFNTTTGLPGSPQVSTPPANSFNKFPPSTSDSHNYGSRTGTPMSNHVMSPTLNTDSSSANGKFIPSRPAPKPPSSASASAPIIKSPVMNSAANVSPLKQTHAPTTPNRTSPNRSSISRNATLKKEEQPLPPIPPTKSKTSPIISTAHTPQQVAQSPKAPAQETVTTPTSKPAQARSLSKELNEKKREERERRKKQLYAKLNEICSDGDPSTKYANLVKIGQGASGGVYTAYEIGTNVSVAIKQMNLEKQPKKELIINEILVMKGSKHPNIVNFIDSYVLKGDLWVIMEYMEGGSLTDVVTHCILTEGQIGAVCRETLSGLEFLHSKGVLHRDIKSDNILLSMEGDIKLTDFGFCAQINELNLKRTTMVGTPYWMAPEVVSRKEYGPKVDIWSLGIMIIEMIEGEPPYLNETPLRALYLIATNGTPKLKEPENLSSSLKKFLDWCLCVEPEDRASATELLHDEYITEIAEANSSLAPLVKLARLKKVAENMDADEDNDDDNDNEHINKTNNCDDNNDSKETVNLDVTEDDKQK
notes: Full length Ste20p in yeast cells (endogenous, or from pDH166 / pSTE20-5); also called STE20^WT; wild-type Ste20p
Turning to B1, in the series with Ste4p, P18851, the FUS1::lacZ expression amounted to 274; the FUS1::lacZ expression, Basal turned out to be 0.1; the FUS1::lacZ expression, Induced came out at 221; the G1 arrest result is on record as “+”. Also, in the series with Ste4p, P18851, the Mating efficiencies (%) was 72.7% and 89.8%; the Shmoo formation entry was “+”. Besides, the “fold increase in the interaction after pheromone treatment” value with HA-Ste4p [1] is about 5 fold.

B2: HA-Ste18p (other, Saccharomyces cerevisiae (yeast), UniProt P18852 1-110, looked up, not shown: small tags and cut ends)
chain: MTSVQNSPRLQQPQEQQQQQQQLSLKIKQLKLKRINELNNKLRKELSRERITASNACLTIINYTSNTKDYTLPELWGYPVAGSNHFIEGLKNAQKNSQMSNSNSVCCTLM
notes: In vitro-translated from pBTL65; also called in vitro-translated HA-Ste18p; γ-subunit of the mating response G-protein
As for B2, the binding result with GST-Ste20p FL was “no binding”.

B3: Ste20p^495-877 (enzyme)
chain: MNSAANVSPLKQTHAPTTPNRTSPNRSSISRNATLKKEEQPLPPIPPTKSKTSPIISTAHTPQQVAQSPKAPAQETVTTPTSKPAQARSLSKELNEKKREERERRKKQLYAKLNEICSDGDPSTKYANLVKIGQGASGGVYTAYEIGTNVSVAIKQMNLEKQPKKELIINEILVMKGSKHPNIVNFIDSYVLKGDLWVIMEYMEGGSLTDVVTHCILTEGQIGAVCRETLSGLEFLHSKGVLHRDIKSDNILLSMEGDIKLTDFGFCAQINELNLKRTTMVGTPYWMAPEVVSRKEYGPKVDIWSLGIMIIEMIEGEPPYLNETPLRALYLIATNGTPKLKEPENLSSSLKKFLDWCLCVEPEDRASATELLHDEYITEIAEA
notes: Overexpressed from the GAL1 promoter (pDH171) in cells deleted for STE20; also called STE20^495-877
With B3, in the series with Ste4p, P18851, the FUS1::lacZ expression, Basal is under 0.1; the FUS1::lacZ expression, Induced was under 0.1; the G1 arrest result is given as “-”; the Mating efficiencies (%) was found to be 0.02%. For the same molecule, the Shmoo formation result in the series with Ste4p, P18851 was “-”. Besides, the binding result with HA-Ste4p [2] is on record as “no binding”.
